Laboratory results from article PMC8876323, “Heat Shock Transcription Factor CgHSF1 Is Required for Melanin Biosynthesis, Appressorium Formation, and Pathogenicity in Colletotrichum gloeosporioides”.

Biological target: T1, CgHSF1 (Colletotrichum gloeosporioides)
T1 chain: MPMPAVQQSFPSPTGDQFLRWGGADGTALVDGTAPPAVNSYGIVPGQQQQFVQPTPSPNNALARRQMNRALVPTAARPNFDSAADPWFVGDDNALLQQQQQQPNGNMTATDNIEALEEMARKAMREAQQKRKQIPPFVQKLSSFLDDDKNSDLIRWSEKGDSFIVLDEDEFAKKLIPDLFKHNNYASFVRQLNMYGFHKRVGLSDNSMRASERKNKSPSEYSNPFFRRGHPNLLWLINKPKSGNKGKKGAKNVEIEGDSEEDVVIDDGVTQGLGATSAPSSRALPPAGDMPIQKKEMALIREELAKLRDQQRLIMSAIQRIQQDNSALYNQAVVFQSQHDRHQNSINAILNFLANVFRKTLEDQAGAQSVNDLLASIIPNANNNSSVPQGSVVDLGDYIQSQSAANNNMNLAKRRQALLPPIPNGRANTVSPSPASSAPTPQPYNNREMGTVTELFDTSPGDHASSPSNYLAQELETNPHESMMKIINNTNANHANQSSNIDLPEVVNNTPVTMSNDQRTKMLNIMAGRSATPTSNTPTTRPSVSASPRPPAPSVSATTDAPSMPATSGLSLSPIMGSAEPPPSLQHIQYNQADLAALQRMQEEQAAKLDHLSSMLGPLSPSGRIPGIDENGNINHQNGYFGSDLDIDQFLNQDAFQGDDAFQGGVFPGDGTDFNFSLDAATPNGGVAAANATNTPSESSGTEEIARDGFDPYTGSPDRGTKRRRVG
Test: EMSA
Settings: protein: recombinant; tags: His (Ni-NTA purified, pCOLD vector); blunt

B1: CMR1-probe (dsDNA)
DNA 1: CGTATCACTTGTTCGAATTTCTCACACATTCGGT
DNA 2: ACCGAATGTGTGAGAAATTCGAACAAGTGATACG
binding result: binds

B2: T4HRa-probe (dsDNA)
DNA 1: CGAGTAAGGCACGCGAAGTTCAGGAGAGAGACCT
DNA 2: AGGTCTCTCTCCTGAACTTCGCGTGCCTTACTCG
binding result: binds

B3: YG-probe (dsDNA)
DNA 1: TGTGGTGGTTTGAGAACATTCACTCAAAGCTCAC
DNA 2: GTGAGCTTTGAGTGAATGTTCTCAAACCACCACA
binding result: binds
